dH of the first site (rising phase, two-site fit) data for 1 substance are collected here from article PMC3372094.

The assay deals with calmodulin-binding domain of the original SK2 channel, SK2-a (UniProt P70604). Kind of assay: ITC. For orientation: In ITC the heat of successive injections is recorded.
Sequence of UniProt P70604 (P70604 396-487): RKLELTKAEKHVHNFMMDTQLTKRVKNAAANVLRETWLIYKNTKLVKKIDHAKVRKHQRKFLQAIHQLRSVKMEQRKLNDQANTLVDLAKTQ

On to “calmodulin (rat) (from UniProt P0DP29 1-149) (natural protein; other documents disagree on this pair)”, for which the dH of the first site (rising phase, two-site fit) is -34.7 kcal/mol.
